From the supplement of paper PMC10567573

B1: DLC1 (parent)
chain: NDDSADYQHFLQDCVDGLFKEVKE
B2: DCAF4 (parent)
chain: PGIDRPGMLCSFRIPGAWSCAWSL

Variants of: B1
Assay: protein stability index of a GFP-peptide fusion (GPS, HEK-293T) (PSI 1-6); higher = more stable
Details: c terminus: a fixed tail appended
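Further: lentivirally expressed fusions sorted by FACS into six bins by GFP to DsRed ratio, PSI derived from sequencing read proportions per bin multiplied by bin number.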

Protein stability index: each site, then its substitutions
K23: D 4.98, P 4.57, M 2.01, A 2.56, Y 2.35, L 2.06
Y7: F 2.05, L 3.03, G 4.01, C 2.55, V 3, E 4.11, R 4.1
G17: D 4.28, M 2.18, F 2.12, E 2.41, S 2.58, W 2.43, T 2.21, H 2.37, L 1.82
K20: V 3.56, S 4.74, W 2.95, P 4.86, R 2.51, N 3.08, I 3.05, Q 3.23, D 5.24
H9: A 3.13, S 3.43, G 2.62, E 3.47, N 3.02
S4: R 2.41, W 2.26, H 2.65, K 1.36, E 1.63, A 2.35, D 2.9, N 2.57, G 3.56, Y 2.22
V22: L 3.32, Y 4.05, T 4.87, D 5.46, S 5.4
Q12: H 3.17, I 3, P 4.15, W 1.79, R 2.42
Q8: L 1.77, I 2.26, A 2.4
F19: G 5.54, L 1.51, T 5.45, P 5.17, M 3.72, Y 2.94, V 2.89
V15: C 4.79, T 5.09, H 4.94, Q 4.74, Y 3.61, M 4.34, N 4.78, D 4.8
D2: F 2.47, L 2.37, G 4.54, N 2.27, K 2.11
C14: D 5.03, F 2.49, L 1.97, M 3.63, N 5.34, Y 2.54, G 4.86, A 2.33, Q 4.71, R 4.87, H 5.11
E24: R 2.01, V 2.69, S 1.91, G 3.66, L 2.36, C 2.33, M 2.3, Q 2.51
N1: K 3.44
L18: T 4.96, W 4.64, R 4.58, N 5.43, I 3.73, F 3.33, P 4.93, E 5.3, G 5.6, S 5.03, C 5.13, M 4.47
D6: P 3.38, T 2.5, F 2.81, G 3.62, C 2.8, L 2.03, Y 2.94, W 2.52
D3: G 2.23, T 2.2, P 2.65, H 2.17, C 1.71, R 1.79
D16: A 2.08, T 3.28, N 2.81, Y 2.21, R 4.08
D13: C 2.09, S 2.2, G 2.42, E 2.66, I 1.84
F10: M 2.34, V 1.42, S 3.92, C 2.66, H 4.34
E21: A 2.29, F 2.51, D 4.67, V 1.83, I 3.01, W 2.28, L 1.67
A5: I 2.05, C 2.05, P 2.4, V 2.02, E 2.92, W 2.1
L11: P 4.51, M 3.29, W 3.78, K 5.08, D 5.47, V 4.18, I 3.54, C 3.07, S 5.1

Variants of: B2
Assay: as above
Details: c terminus: a fixed tail appended

Protein stability index: each site, then its substitutions
P1: H 2.96, D 2.31, C 2.36, G 3.67, A 1.93
